The values below come from publication PMC3037360.

Assay [1] has as its target CFP-E2TM (CFP in fusion with the transmembrane domain of HCV E2, H strain) (hepatitis C virus (H strain)). Kind of assay: FRET or BRET. In general terms: In BRET a luciferase serves as donor, and the signal depends on an acceptor being close.
In assay [2] the target is CFP-p7 (Cerulean fluorescent protein fused to the N-terminus of HCV p7) (hepatitis C virus (strain not stated)) (UniProt P27958). Kind of assay: FRET or BRET.

In assay [1], “YFP-E1TM (YFP in fusion with the transmembrane domain of HCV E1, H strain) (domain or fragment)” had a mean lifetime of the donor protein of 2.35 ns.

“YFP-NS2 (Venus yellow fluorescent protein fused to the N-terminus of HCV NS2) (from UniProt P27958 810-1026) (natural protein)” displayed a mean lifetime of the donor protein in assay [2] of 2.34 ns.
